T1: human amylin receptor (amylin 3(a) receptor: human calcitonin receptor with RAMP-3) (human, UniProt P30988 25-474; O60896 24-148)
T1 construct: whole, on cells; also called hAmylin-R; hAmylinR
T1 sequence (looked up) 1: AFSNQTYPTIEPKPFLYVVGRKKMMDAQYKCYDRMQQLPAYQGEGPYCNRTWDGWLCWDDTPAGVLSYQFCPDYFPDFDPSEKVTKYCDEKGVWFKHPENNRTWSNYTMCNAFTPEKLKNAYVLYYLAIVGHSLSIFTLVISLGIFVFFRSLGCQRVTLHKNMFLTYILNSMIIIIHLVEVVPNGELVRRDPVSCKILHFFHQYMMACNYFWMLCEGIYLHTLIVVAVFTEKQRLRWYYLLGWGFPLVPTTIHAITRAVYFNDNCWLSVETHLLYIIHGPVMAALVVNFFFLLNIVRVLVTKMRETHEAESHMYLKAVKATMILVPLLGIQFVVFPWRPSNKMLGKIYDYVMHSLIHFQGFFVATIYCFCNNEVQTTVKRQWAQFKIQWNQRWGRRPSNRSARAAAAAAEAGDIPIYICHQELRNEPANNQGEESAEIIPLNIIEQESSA
T1 sequence (looked up) 2: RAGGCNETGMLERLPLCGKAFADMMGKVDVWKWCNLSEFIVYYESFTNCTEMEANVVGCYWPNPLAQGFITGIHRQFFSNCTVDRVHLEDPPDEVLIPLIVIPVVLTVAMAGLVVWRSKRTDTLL

B1: N^ε1-[2-[2-[2-[[(4S)-4-carboxy-4-(19-carboxynonadecanoylamino)butanoyl]amino]ethoxy]ethoxy]acetyl]-[Arg17,Pro21,Pro27,Arg35]-h-amylin (peptide)
peptide: K([AEEA-γGlu-C20 diacid])CNTATCATQRLANFLRHSSPNFGAIPSSTNVGSRTY-NH2
modifications: disulfide 2-7; N-terminus assumed
SMILES: CC[C@H](C)[C@H](NC(=O)[C@H](C)NC(=O)CNC(=O)[C@H](Cc1ccccc1)NC(=O)[C@H](CC(N)=O)NC(=O)[C@@H]1CCCN1C(=O)[C@H](CO)NC(=O)[C@H](CO)NC(=O)[C@H](Cc1c[nH]cn1)NC(=O)[C@H](CCCNC(=N)N)NC(=O)[C@H](CC(C)C)NC(=O)[C@H](Cc1ccccc1)NC(=O)[C@H](CC(N)=O)NC(=O)[C@H](C)NC(=O)[C@H](CC(C)C)NC(=O)[C@H](CCCNC(=N)N)NC(=O)[C@H](CCC(N)=O)NC(=O)[C@@H](NC(=O)[C@H](C)NC(=O)[C@@H]1CSSC[C@H](NC(=O)[C@@H](N)CCCCNC(=O)COCCOCCNC(=O)CC[C@H](NC(=O)CCCCCCCCCCCCCCCCCCC(=O)O)C(=O)O)C(=O)N[C@@H](CC(N)=O)C(=O)N[C@@H]([C@@H](C)O)C(=O)N[C@@H](C)C(=O)N[C@@H]([C@@H](C)O)C(=O)N1)[C@@H](C)O)C(=O)N1CCC[C@H]1C(=O)N[C@@H](CO)C(=O)N[C@@H](CO)C(=O)N[C@H](C(=O)N[C@@H](CC(N)=O)C(=O)N[C@H](C(=O)NCC(=O)N[C@@H](CO)C(=O)N[C@@H](CCCNC(=N)N)C(=O)N[C@H](C(=O)N[C@@H](Cc1ccc(O)cc1)C(N)=O)[C@@H](C)O)C(C)C)[C@@H](C)O
notes: also called 38; compound 38
B2: N^ε1-[2-[2-[2-[[(4S)-4-carboxy-4-(19-carboxynonadecanoylamino)butanoyl]amino]ethoxy]ethoxy]acetyl]-[Arg17,Pro21,Pro27,Pro29,Pro31]-h-amylin (peptide)
peptide: K([AEEA-γGlu-C20 diacid])CNTATCATQRLANFLRHSSPNFGAIPSPTPVGSNTY-NH2
modifications: disulfide 2-7; N-terminus assumed
SMILES: CC[C@H](C)[C@H](NC(=O)[C@H](C)NC(=O)CNC(=O)[C@H](Cc1ccccc1)NC(=O)[C@H](CC(N)=O)NC(=O)[C@@H]1CCCN1C(=O)[C@H](CO)NC(=O)[C@H](CO)NC(=O)[C@H](Cc1c[nH]cn1)NC(=O)[C@H](CCCNC(=N)N)NC(=O)[C@H](CC(C)C)NC(=O)[C@H](Cc1ccccc1)NC(=O)[C@H](CC(N)=O)NC(=O)[C@H](C)NC(=O)[C@H](CC(C)C)NC(=O)[C@H](CCCNC(=N)N)NC(=O)[C@H](CCC(N)=O)NC(=O)[C@@H](NC(=O)[C@H](C)NC(=O)[C@@H]1CSSC[C@H](NC(=O)[C@@H](N)CCCCNC(=O)COCCOCCNC(=O)CC[C@H](NC(=O)CCCCCCCCCCCCCCCCCCC(=O)O)C(=O)O)C(=O)N[C@@H](CC(N)=O)C(=O)N[C@@H]([C@@H](C)O)C(=O)N[C@@H](C)C(=O)N[C@@H]([C@@H](C)O)C(=O)N1)[C@@H](C)O)C(=O)N1CCC[C@H]1C(=O)N[C@@H](CO)C(=O)N1CCC[C@H]1C(=O)N[C@H](C(=O)N1CCC[C@H]1C(=O)N[C@H](C(=O)NCC(=O)N[C@@H](CO)C(=O)N[C@@H](CC(N)=O)C(=O)N[C@H](C(=O)N[C@@H](Cc1ccc(O)cc1)C(N)=O)[C@@H](C)O)C(C)C)[C@@H](C)O
notes: also called 54; compound 54
B3: N^ε1-[2-[2-[2-[[(4S)-4-carboxy-4-(19-carboxynonadecanoylamino)butanoyl]amino]ethoxy]ethoxy]acetyl]-[Arg17,Pro21,Pro27,Pro28,Pro31]-h-amylin (peptide)
peptide: K([AEEA-γGlu-C20 diacid])CNTATCATQRLANFLRHSSPNFGAIPPSTPVGSNTY-NH2
modifications: disulfide 2-7
notes: also called 53; compound 53
B4: N^ε1-[2-[2-[2-[[(4S)-4-carboxy-4-(19-carboxynonadecanoylamino)butanoyl]amino]ethoxy]ethoxy]acetyl]-[Arg17,Pro21,Pro27,His34]-h-amylin (peptide)
peptide: K([AEEA-γGlu-C20 diacid])CNTATCATQRLANFLRHSSPNFGAIPSSTNVGHNTY-NH2
modifications: disulfide 2-7; N-terminus assumed
SMILES: CC[C@H](C)[C@H](NC(=O)[C@H](C)NC(=O)CNC(=O)[C@H](Cc1ccccc1)NC(=O)[C@H](CC(N)=O)NC(=O)[C@@H]1CCCN1C(=O)[C@H](CO)NC(=O)[C@H](CO)NC(=O)[C@H](Cc1c[nH]cn1)NC(=O)[C@H](CCCNC(=N)N)NC(=O)[C@H](CC(C)C)NC(=O)[C@H](Cc1ccccc1)NC(=O)[C@H](CC(N)=O)NC(=O)[C@H](C)NC(=O)[C@H](CC(C)C)NC(=O)[C@H](CCCNC(=N)N)NC(=O)[C@H](CCC(N)=O)NC(=O)[C@@H](NC(=O)[C@H](C)NC(=O)[C@@H]1CSSC[C@H](NC(=O)[C@@H](N)CCCCNC(=O)COCCOCCNC(=O)CC[C@H](NC(=O)CCCCCCCCCCCCCCCCCCC(=O)O)C(=O)O)C(=O)N[C@@H](CC(N)=O)C(=O)N[C@@H]([C@@H](C)O)C(=O)N[C@@H](C)C(=O)N[C@@H]([C@@H](C)O)C(=O)N1)[C@@H](C)O)C(=O)N1CCC[C@H]1C(=O)N[C@@H](CO)C(=O)N[C@@H](CO)C(=O)N[C@H](C(=O)N[C@@H](CC(N)=O)C(=O)N[C@H](C(=O)NCC(=O)N[C@@H](Cc1c[nH]cn1)C(=O)N[C@@H](CC(N)=O)C(=O)N[C@H](C(=O)N[C@@H](Cc1ccc(O)cc1)C(N)=O)[C@@H](C)O)C(C)C)[C@@H](C)O
notes: also called 76; compound 76
B5: N^ε1-[2-[2-[2-[[(4S)-4-carboxy-4-(19-carboxynonadecanoylamino)butanoyl]amino]ethoxy]ethoxy]acetyl]-[Arg17,Pro21,Pro27,Pro28,Pro34]-h-amylin (peptide)
peptide: K([AEEA-γGlu-C20 diacid])CNTATCATQRLANFLRHSSPNFGAIPPSTNVGPNTY-NH2
modifications: disulfide 2-7; N-terminus assumed
SMILES: CC[C@H](C)[C@H](NC(=O)[C@H](C)NC(=O)CNC(=O)[C@H](Cc1ccccc1)NC(=O)[C@H](CC(N)=O)NC(=O)[C@@H]1CCCN1C(=O)[C@H](CO)NC(=O)[C@H](CO)NC(=O)[C@H](Cc1c[nH]cn1)NC(=O)[C@H](CCCNC(=N)N)NC(=O)[C@H](CC(C)C)NC(=O)[C@H](Cc1ccccc1)NC(=O)[C@H](CC(N)=O)NC(=O)[C@H](C)NC(=O)[C@H](CC(C)C)NC(=O)[C@H](CCCNC(=N)N)NC(=O)[C@H](CCC(N)=O)NC(=O)[C@@H](NC(=O)[C@H](C)NC(=O)[C@@H]1CSSC[C@H](NC(=O)[C@@H](N)CCCCNC(=O)COCCOCCNC(=O)CC[C@H](NC(=O)CCCCCCCCCCCCCCCCCCC(=O)O)C(=O)O)C(=O)N[C@@H](CC(N)=O)C(=O)N[C@@H]([C@@H](C)O)C(=O)N[C@@H](C)C(=O)N[C@@H]([C@@H](C)O)C(=O)N1)[C@@H](C)O)C(=O)N1CCC[C@H]1C(=O)N1CCC[C@H]1C(=O)N[C@@H](CO)C(=O)N[C@H](C(=O)N[C@@H](CC(N)=O)C(=O)N[C@H](C(=O)NCC(=O)N1CCC[C@H]1C(=O)N[C@@H](CC(N)=O)C(=O)N[C@H](C(=O)N[C@@H](Cc1ccc(O)cc1)C(N)=O)[C@@H](C)O)C(C)C)[C@@H](C)O
notes: also called 55; compound 55
B6: N^ε1-[2-[2-[2-[[(4S)-4-carboxy-4-(19-carboxynonadecanoylamino)butanoyl]amino]ethoxy]ethoxy]acetyl]-[Arg17,Pro21,Pro27,Glu35]-h-amylin (peptide)
peptide: K([AEEA-γGlu-C20 diacid])CNTATCATQRLANFLRHSSPNFGAIPSSTNVGSETY-NH2
modifications: disulfide 2-7; N-terminus assumed
SMILES: CC[C@H](C)[C@H](NC(=O)[C@H](C)NC(=O)CNC(=O)[C@H](Cc1ccccc1)NC(=O)[C@H](CC(N)=O)NC(=O)[C@@H]1CCCN1C(=O)[C@H](CO)NC(=O)[C@H](CO)NC(=O)[C@H](Cc1c[nH]cn1)NC(=O)[C@H](CCCNC(=N)N)NC(=O)[C@H](CC(C)C)NC(=O)[C@H](Cc1ccccc1)NC(=O)[C@H](CC(N)=O)NC(=O)[C@H](C)NC(=O)[C@H](CC(C)C)NC(=O)[C@H](CCCNC(=N)N)NC(=O)[C@H](CCC(N)=O)NC(=O)[C@@H](NC(=O)[C@H](C)NC(=O)[C@@H]1CSSC[C@H](NC(=O)[C@@H](N)CCCCNC(=O)COCCOCCNC(=O)CC[C@H](NC(=O)CCCCCCCCCCCCCCCCCCC(=O)O)C(=O)O)C(=O)N[C@@H](CC(N)=O)C(=O)N[C@@H]([C@@H](C)O)C(=O)N[C@@H](C)C(=O)N[C@@H]([C@@H](C)O)C(=O)N1)[C@@H](C)O)C(=O)N1CCC[C@H]1C(=O)N[C@@H](CO)C(=O)N[C@@H](CO)C(=O)N[C@H](C(=O)N[C@@H](CC(N)=O)C(=O)N[C@H](C(=O)NCC(=O)N[C@@H](CO)C(=O)N[C@@H](CCC(=O)O)C(=O)N[C@H](C(=O)N[C@@H](Cc1ccc(O)cc1)C(N)=O)[C@@H](C)O)C(C)C)[C@@H](C)O
notes: also called 26; compound 26
B7: N^ε1-[2-[2-[2-[[(4S)-4-carboxy-4-(19-carboxynonadecanoylamino)butanoyl]amino]ethoxy]ethoxy]acetyl]-[Arg17,Pro21,Pro27,Pro29,Pro34]-h-amylin (peptide)
peptide: K([AEEA-γGlu-C20 diacid])CNTATCATQRLANFLRHSSPNFGAIPSPTNVGPNTY-NH2
modifications: disulfide 2-7; N-terminus assumed
SMILES: CC[C@H](C)[C@H](NC(=O)[C@H](C)NC(=O)CNC(=O)[C@H](Cc1ccccc1)NC(=O)[C@H](CC(N)=O)NC(=O)[C@@H]1CCCN1C(=O)[C@H](CO)NC(=O)[C@H](CO)NC(=O)[C@H](Cc1c[nH]cn1)NC(=O)[C@H](CCCNC(=N)N)NC(=O)[C@H](CC(C)C)NC(=O)[C@H](Cc1ccccc1)NC(=O)[C@H](CC(N)=O)NC(=O)[C@H](C)NC(=O)[C@H](CC(C)C)NC(=O)[C@H](CCCNC(=N)N)NC(=O)[C@H](CCC(N)=O)NC(=O)[C@@H](NC(=O)[C@H](C)NC(=O)[C@@H]1CSSC[C@H](NC(=O)[C@@H](N)CCCCNC(=O)COCCOCCNC(=O)CC[C@H](NC(=O)CCCCCCCCCCCCCCCCCCC(=O)O)C(=O)O)C(=O)N[C@@H](CC(N)=O)C(=O)N[C@@H]([C@@H](C)O)C(=O)N[C@@H](C)C(=O)N[C@@H]([C@@H](C)O)C(=O)N1)[C@@H](C)O)C(=O)N1CCC[C@H]1C(=O)N[C@@H](CO)C(=O)N1CCC[C@H]1C(=O)N[C@H](C(=O)N[C@@H](CC(N)=O)C(=O)N[C@H](C(=O)NCC(=O)N1CCC[C@H]1C(=O)N[C@@H](CC(N)=O)C(=O)N[C@H](C(=O)N[C@@H](Cc1ccc(O)cc1)C(N)=O)[C@@H](C)O)C(C)C)[C@@H](C)O
notes: also called 56; compound 56

The IC50 is the point on the concentration scale where inhibition reaches its midpoint.

Numbered stars: 1 amine (or outer) side, 2 acyl side, 3 side chain; on linkers, the order of the positions; unused ones are H or OH. Bridge positions count the residues as written; N and C are the ends. Side chains are listed from the residue outwards. Ends that are not written are not given here. * marks the point of attachment. C20 diacid = O=C(O)CCCCCCCCCCCCCCCCCCC(=O)*; γGlu = O=C(O)[C@H](CCC(=O)[*:2])N[*:1]; AEEA = NCCOCCOCC(=O)O

The test deals with T1, human amylin receptor (amylin 3(a) …). Briefly: SPA displacement of 125I-rat amylin, hAmylin 3(a) receptor membranes. The gist of the method:
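SPA beads with BHK Amylin 3(a)/CRE-luc cell membranes (35 ng/μL final) in 50 mM Hepes pH 7.4, 1 mM CaCl2, 5 mM MgCl₂, 0.1% OA, 0.02% Tween20.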
As to B1, the IC50 was 0.249 nM.

In the case of B2, the concentration for half-maximal inhibition (IC50) came out at 0.03 nM.

On to B3, for which the IC50 was determined as 0.052 nM.

Consider B4, for which the IC50 came to 0.215 nM.

Regarding B5, the IC50 is 0.042 nM.

Consider B6, for which the IC50 is 0.532 nM.

As for B7, the IC50 is 0.049 nM.

For the origin of these results see patent US20140087995A1 (published 2014).
